Ends that are not written are not given here.
Biological target: T1, FasR epitope peptide LHHDGQFCH (human FasR residues 52-60) (human, also: coupled to BSA, linkage not given here)
T1 construct: Coated as BSA-peptide at 100 ng/well; The immunogens were KLH-Cys-X and OVA-Cys-X; also called BSA-specific peptide
T1 peptide: LHHDGQFCH
Assay: ELISA, BSA-peptide coated on plates

B1: AMF-3a-118 (antibody, V domains shown)
VH: QSVEESGGRLVTPGTPLTLTCKASGFSLSDSRVSWVRQAPGKGLEWIGIVGIGWNIYHANWAKGRFTISKTSSTTVDLKITSPTVEDTATYFCARGLGGGTVIWGPGTLVTVSL
VL: AQVLTQTPASVSAAVGGTVTISCQSSESVYKNNYLSWFQQKPGQPPKLLIYEASKLASGVSTRFKGSGSGTQFTLTISGVQCDDAATYYCLGEFSCYSGDCGTFGGGTAVVVKG
notes: Recombinant rabbit monoclonal IgG (RabMAb) expressed in HEK-293-6E cells
B1: binds.
